Where two headings read alike, the source gives them in different places.
T1: human OX40 (human, UniProt P43489 29-277)
T1 chain: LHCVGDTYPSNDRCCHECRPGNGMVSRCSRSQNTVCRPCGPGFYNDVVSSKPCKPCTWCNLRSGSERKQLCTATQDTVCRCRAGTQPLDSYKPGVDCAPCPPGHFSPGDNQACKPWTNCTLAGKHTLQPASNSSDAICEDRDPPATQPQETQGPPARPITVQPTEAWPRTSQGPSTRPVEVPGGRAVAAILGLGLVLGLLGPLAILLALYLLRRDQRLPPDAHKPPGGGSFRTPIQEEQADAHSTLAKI


What was measured:
human OX40 [1] = target: T1, human OX40; experiment: flow cytometry
human OX40 [2] = target: T1, human OX40; experiment: flow cytometry

| Binder | EC50 (human OX40 [1]) [nM] | EC50 (human OX40 [2]) [nM] |
| --- | --- | --- |
| mono-mut23-20E5_V6 (Fc fusion) IWELKKDVYVVELDWYPDAPGEMVVLTCDTPEEDGITWTLDQSSEVLGSGKTLTIQVKEFGDAGQYTCHKGGEVLSHSLLLLHKKEDGIWSTDILKDQKEPKNKTFLRCEAKNYSGRFTCWWLTTISTDLTFSVKSSRGSSDPQGVTCGAATLSAERVRGDNKEYEYSVECQEDSACPAAEESLPIEVMVDAVHKLKYENYTSSFFIRDIIKPDPPKNLQLKPLKNSRQVEVSWEYPDTWSTPHSYFSLTFSVQVQGKSKREKKDRVFTDKTSATVICRKNASISVRAQDRYYSSSWSEWASVPCSGGGGSGGGGSGGGGSGGGGSGGGGSRNLPVATPDPGMFPCLHHSQNLLRAVSNMLQKARQTLEFSPCTSEEIDHEDITKDKTSTVEACLPLELTKNESCLNSRETSFITNGSCLASRKTSFMMALCLSSIYEDLKMYQVEFKTMNAKLLMDPKRQIFLDQNMLAVIDELMQALNFNSETVPQKSSLEEPDFYKTAIKLCILLHAFRIRAVTIDRVMSYLNASGGGGSGGGGSEPKSSDKTHTCPPCPAPEFEGGPSVFLFPPKPKDTLMISRTPEVTCVVVDVSHEDPEVKFNWYVDGVEVHNAKTKPREEQYNSTYRVVSVLTVLHQDWLNGKEYKCKVSNKALPASIEKTISKAKGQPREPQVCTLPPSRDELTKNQVSLSCAVKGFYPSDIAVEWESNGQPENNYKTTPPVLDSDGSFFLVSKLTVDKSRWQQGNVFSCSVMHEALHNHYTQKSLSLSPG heavy: QVQLVQSGAEVKKPGASVKVSCKASGYTFTSYVMHWVRQAPGQRLEWIGYINPYNDATKYNEKFKGRATLTSDKSASTAYMELSSLRSEDTAVYYCANYYGSSLSMDYWGQGTLVTVSSASTKGPSVFPLAPSSKSTSGGTAALGCLVKDYFPEPVTVSWNSGALTSGVHTFPAVLQSSGLYSLSSVVTVPSSSLGTQTYICNVNHKPSNTKVDKKVEPKSCDKTHTCPPCPAPEFEGGPSVFLFPPKPKDTLMISRTPEVTCVVVDVSHEDPEVKFNWYVDGVEVHNAKTKPREEQYNSTYRVVSVLTVLHQDWLNGKEYKCKVSNKALPASIEKTISKAKGQPREPQVYTLPPCRDELTKNQVSLWCLVKGFYPSDIAVEWESNGQPENNYKTTPPVLDSDGSFFLYSKLTVDKSRWQQGNVFSCSVMHEALHNHYTQKSLSLSPG light: not shown | 538 |  |
| mono-mut23-12H3_V4 (Fc fusion) IWELKKDVYVVELDWYPDAPGEMVVLTCDTPEEDGITWTLDQSSEVLGSGKTLTIQVKEFGDAGQYTCHKGGEVLSHSLLLLHKKEDGIWSTDILKDQKEPKNKTFLRCEAKNYSGRFTCWWLTTISTDLTFSVKSSRGSSDPQGVTCGAATLSAERVRGDNKEYEYSVECQEDSACPAAEESLPIEVMVDAVHKLKYENYTSSFFIRDIIKPDPPKNLQLKPLKNSRQVEVSWEYPDTWSTPHSYFSLTFSVQVQGKSKREKKDRVFTDKTSATVICRKNASISVRAQDRYYSSSWSEWASVPCSGGGGSGGGGSGGGGSGGGGSGGGGSRNLPVATPDPGMFPCLHHSQNLLRAVSNMLQKARQTLEFSPCTSEEIDHEDITKDKTSTVEACLPLELTKNESCLNSRETSFITNGSCLASRKTSFMMALCLSSIYEDLKMYQVEFKTMNAKLLMDPKRQIFLDQNMLAVIDELMQALNFNSETVPQKSSLEEPDFYKTAIKLCILLHAFRIRAVTIDRVMSYLNASGGGGSGGGGSEPKSSDKTHTCPPCPAPEFEGGPSVFLFPPKPKDTLMISRTPEVTCVVVDVSHEDPEVKFNWYVDGVEVHNAKTKPREEQYNSTYRVVSVLTVLHQDWLNGKEYKCKVSNKALPASIEKTISKAKGQPREPQVCTLPPSRDELTKNQVSLSCAVKGFYPSDIAVEWESNGQPENNYKTTPPVLDSDGSFFLVSKLTVDKSRWQQGNVFSCSVMHEALHNHYTQKSLSLSPG heavy: QVQLVQSGAEVKKPGSSVKVSCKASGYTFKDYTMHWVRQAPGQGLEWIGGIYPNAGGSTYNQNFKDRVTLTADKSTSTAYMELSSLRSEDTAVYYCARMGYHGPHLDFDVWGQGTTVTVSSASTKGPSVFPLAPSSKSTSGGTAALGCLVKDYFPEPVTVSWNSGALTSGVHTFPAVLQSSGLYSLSSVVTVPSSSLGTQTYICNVNHKPSNTKVDKKVEPKSCDKTHTCPPCPAPEFEGGPSVFLFPPKPKDTLMISRTPEVTCVVVDVSHEDPEVKFNWYVDGVEVHNAKTKPREEQYNSTYRVVSVLTVLHQDWLNGKEYKCKVSNKALPASIEKTISKAKGQPREPQVYTLPPCRDELTKNQVSLWCLVKGFYPSDIAVEWESNGQPENNYKTTPPVLDSDGSFFLYSKLTVDKSRWQQGNVFSCSVMHEALHNHYTQKSLSLSPG light: DIQMTQSPSSLSASVGDRVTITCKASQDVGAAVAWYQQKPGKAPKLLIYWASTRHTGVPSRFSGSGSGTDFTLTISSLQPEDFATYYCQQYINYPLTFGGGTKVEIKRTVAAPSVFIFPPSDEQLKSGTASVVCLLNNFYPREAKVQWKVDNALQSGNSQESVTEQDSKDSTYSLSSTLTLSKADYEKHKVYACEVTHQGLSSPVTKSFNRGEC |  | 1880 |
| mono-mut23-20E5_V4 (Fc fusion) IWELKKDVYVVELDWYPDAPGEMVVLTCDTPEEDGITWTLDQSSEVLGSGKTLTIQVKEFGDAGQYTCHKGGEVLSHSLLLLHKKEDGIWSTDILKDQKEPKNKTFLRCEAKNYSGRFTCWWLTTISTDLTFSVKSSRGSSDPQGVTCGAATLSAERVRGDNKEYEYSVECQEDSACPAAEESLPIEVMVDAVHKLKYENYTSSFFIRDIIKPDPPKNLQLKPLKNSRQVEVSWEYPDTWSTPHSYFSLTFSVQVQGKSKREKKDRVFTDKTSATVICRKNASISVRAQDRYYSSSWSEWASVPCSGGGGSGGGGSGGGGSGGGGSGGGGSRNLPVATPDPGMFPCLHHSQNLLRAVSNMLQKARQTLEFSPCTSEEIDHEDITKDKTSTVEACLPLELTKNESCLNSRETSFITNGSCLASRKTSFMMALCLSSIYEDLKMYQVEFKTMNAKLLMDPKRQIFLDQNMLAVIDELMQALNFNSETVPQKSSLEEPDFYKTAIKLCILLHAFRIRAVTIDRVMSYLNASGGGGSGGGGSEPKSSDKTHTCPPCPAPEFEGGPSVFLFPPKPKDTLMISRTPEVTCVVVDVSHEDPEVKFNWYVDGVEVHNAKTKPREEQYNSTYRVVSVLTVLHQDWLNGKEYKCKVSNKALPASIEKTISKAKGQPREPQVCTLPPSRDELTKNQVSLSCAVKGFYPSDIAVEWESNGQPENNYKTTPPVLDSDGSFFLVSKLTVDKSRWQQGNVFSCSVMHEALHNHYTQKSLSLSPG heavy: QVQLVQSGAEVKKPGASVKVSCKASGYTFTSYVMHWVRQAPGQRLEWIGYINPYNEGTKYNEKFKGRATLTSDKSASTAYMELSSLRSEDTAVYYCANYYGSSLSMDYWGQGTLVTVSSASTKGPSVFPLAPSSKSTSGGTAALGCLVKDYFPEPVTVSWNSGALTSGVHTFPAVLQSSGLYSLSSVVTVPSSSLGTQTYICNVNHKPSNTKVDKKVEPKSCDKTHTCPPCPAPEFEGGPSVFLFPPKPKDTLMISRTPEVTCVVVDVSHEDPEVKFNWYVDGVEVHNAKTKPREEQYNSTYRVVSVLTVLHQDWLNGKEYKCKVSNKALPASIEKTISKAKGQPREPQVYTLPPCRDELTKNQVSLWCLVKGFYPSDIAVEWESNGQPENNYKTTPPVLDSDGSFFLYSKLTVDKSRWQQGNVFSCSVMHEALHNHYTQKSLSLSPG light: not shown | 69.2 |  |
| mono-mut23-20E5_V5 (Fc fusion) IWELKKDVYVVELDWYPDAPGEMVVLTCDTPEEDGITWTLDQSSEVLGSGKTLTIQVKEFGDAGQYTCHKGGEVLSHSLLLLHKKEDGIWSTDILKDQKEPKNKTFLRCEAKNYSGRFTCWWLTTISTDLTFSVKSSRGSSDPQGVTCGAATLSAERVRGDNKEYEYSVECQEDSACPAAEESLPIEVMVDAVHKLKYENYTSSFFIRDIIKPDPPKNLQLKPLKNSRQVEVSWEYPDTWSTPHSYFSLTFSVQVQGKSKREKKDRVFTDKTSATVICRKNASISVRAQDRYYSSSWSEWASVPCSGGGGSGGGGSGGGGSGGGGSGGGGSRNLPVATPDPGMFPCLHHSQNLLRAVSNMLQKARQTLEFSPCTSEEIDHEDITKDKTSTVEACLPLELTKNESCLNSRETSFITNGSCLASRKTSFMMALCLSSIYEDLKMYQVEFKTMNAKLLMDPKRQIFLDQNMLAVIDELMQALNFNSETVPQKSSLEEPDFYKTAIKLCILLHAFRIRAVTIDRVMSYLNASGGGGSGGGGSEPKSSDKTHTCPPCPAPEFEGGPSVFLFPPKPKDTLMISRTPEVTCVVVDVSHEDPEVKFNWYVDGVEVHNAKTKPREEQYNSTYRVVSVLTVLHQDWLNGKEYKCKVSNKALPASIEKTISKAKGQPREPQVCTLPPSRDELTKNQVSLSCAVKGFYPSDIAVEWESNGQPENNYKTTPPVLDSDGSFFLVSKLTVDKSRWQQGNVFSCSVMHEALHNHYTQKSLSLSPG heavy: QVQLVQSGAEVKKPGASVKVSCKASGYTFTSYVMHWVRQAPGQRLEWIGYINPYNAGTKYNEKFKGRATLTSDKSASTAYMELSSLRSEDTAVYYCANYYGSSLSMDYWGQGTLVTVSSASTKGPSVFPLAPSSKSTSGGTAALGCLVKDYFPEPVTVSWNSGALTSGVHTFPAVLQSSGLYSLSSVVTVPSSSLGTQTYICNVNHKPSNTKVDKKVEPKSCDKTHTCPPCPAPEFEGGPSVFLFPPKPKDTLMISRTPEVTCVVVDVSHEDPEVKFNWYVDGVEVHNAKTKPREEQYNSTYRVVSVLTVLHQDWLNGKEYKCKVSNKALPASIEKTISKAKGQPREPQVYTLPPCRDELTKNQVSLWCLVKGFYPSDIAVEWESNGQPENNYKTTPPVLDSDGSFFLYSKLTVDKSRWQQGNVFSCSVMHEALHNHYTQKSLSLSPG light: not shown | 73 |  |

Source: US20250236653A1 (published 2025)
